Positions of bridges follow the written chain, without caps; N, C: chain ends. Non-standard residues stand in square brackets, D forms with d. *: point of attachment. S5 = C=CCCC[C@](C)(N)C(=O)O; Nle = CCCC[C@H](N)C(=O)O; For = O=C*
Experiments:
[1] = target: T1, hDcn1^P (residues 62 to the C-terminal residue 259 of hDcn1, aka SCCRO or DCUN1D1) (Homo sapiens, UniProt Q96GG9 62-259); experiment: crystal structure
T1 construct: Expressed as a GST fusion in E. coli; GST released by TEV protease; also called DCUN1D1^P; PONY domain of hDcn1
T1 sequence (Q96GG9 62-259): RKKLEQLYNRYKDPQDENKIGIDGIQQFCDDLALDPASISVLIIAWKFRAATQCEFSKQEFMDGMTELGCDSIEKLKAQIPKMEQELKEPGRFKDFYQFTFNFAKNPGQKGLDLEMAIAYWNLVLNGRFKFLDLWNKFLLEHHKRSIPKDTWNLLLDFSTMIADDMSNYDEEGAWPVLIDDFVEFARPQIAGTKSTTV
Protocol: The crystals grew as multiple clusters. Single crystals of the complex were obtained by streak-seeding into 17% PEG1500, 0.1 M MIB pH 4.0. The crystals were soaked in step gradients for 1-5 minutes, with sequential soaks containing well solution supplemented with 10%, 20%, and 30% ethylene glycol prior to flash-freezing in liquid nitrogen. Reflection data were collected at beamline 8.2.2 at the Advanced Light Source.

[2] = target: T2, hDcn1^P (PONY domain of human Dcn1 / DCUN1D1 / SCCRO, residues 62 to 259) (Homo sapiens, UniProt Q96GG9 62-259); experiment: ITC, peptide titrated into hDcn1^P
T2 construct: NEDD8 co-E3; Expressed as a GST fusion in E. coli; GST was removed with TEV protease; also called DCUN1D1^P
T2 sequence (Q96GG9 62-259): as above
Protocol: (§1) The formylated peptides lack the methyl portion of an acetyl, but retain the amide and are uncharged.
(§2) Protein samples were buffer matched by desalting over a NAP-5 column (GE Healthcare) into 50 mM Hepes, 125 mM NaCl, 1 mM BME, pH 7.0 (ITC buffer). Peptides were dissolved by weight to a final concentration of 10 mM in ITC buffer and diluted further in ITC buffer as required for the experiments. […] The peptide ligands (4 mM) were constantly injected (1.5 μl). The interval time between each injection was 3 minutes and the duration of each injection was 3 seconds. […] Peptide ligands (250 μM) were constantly injected (2.5 μl). The interval time between each injection was three minutes and the duration of each injection was 5 seconds. […] The interval time between each injection was 3 minutes and the duration of each injection was 5 seconds. Obtained spectra were evaluated using Origin (V 7.0) to determine heats of binding and Kd values.

[3] = target: T1, hDcn1^P (residues 62 to the C-terminal …); experiment: ITC, peptide titrated into Dcn1^P; against the unacetylated peptide
Protocol: (§3) To gain insights into mechanistic roles of Ubc12 N-terminal acetylation, isothermal titration calorimetry (ITC) was used to quantify interactions with peptides corresponding to the N-termini of yeast or human Ubc12.
as §2

[4] = target: T3, yDcn1^P (potentiating neddylation (PONY) domain of S. cerevisiae Dcn1) (Saccharomyces cerevisiae, UniProt Q12395 70-269); experiment: ITC; against Acetyl-yUbc12^1-24
T3 construct: NEDD8 co-E3; Expressed in E. coli
T3 sequence: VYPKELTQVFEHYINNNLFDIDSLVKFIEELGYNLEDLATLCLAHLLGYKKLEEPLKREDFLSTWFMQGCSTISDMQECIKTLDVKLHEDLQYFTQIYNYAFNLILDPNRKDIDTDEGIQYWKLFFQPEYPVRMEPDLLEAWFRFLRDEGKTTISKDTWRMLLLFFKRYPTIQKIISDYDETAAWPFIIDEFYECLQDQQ
Protocol: as §2

[5] = target: T4, yDcn1^P (potentiating neddylation / PONY domain of Saccharomyces cerevisiae Dcn1) (Saccharomyces cerevisiae, UniProt Q12395 70-269); experiment: ITC, peptide titrated into yDcn1^P
T4 construct: NEDD8 co-E3; Expressed in E. coli
T4 sequence: T3 sequence
Protocol: as §1, §2

[6] = target: T5, hDcn3^P (PONY domain of human DCUN1D3) (Homo sapiens, UniProt Q8IWE4 86-304); experiment: ITC, peptide titrated into Dcn PONY domain
T5 sequence: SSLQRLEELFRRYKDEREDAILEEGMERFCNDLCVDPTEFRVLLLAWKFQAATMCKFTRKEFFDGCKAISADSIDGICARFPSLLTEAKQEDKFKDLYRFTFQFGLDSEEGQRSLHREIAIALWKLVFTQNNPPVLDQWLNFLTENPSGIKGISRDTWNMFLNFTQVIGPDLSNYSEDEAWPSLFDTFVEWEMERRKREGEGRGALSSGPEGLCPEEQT
Protocol: as §2

[7] = target: T6, hDcn4^P (PONY domain of human DCUN1D4) (Homo sapiens, UniProt Q92564 102-292); experiment: ITC, peptide titrated into Dcn PONY domain
T6 sequence: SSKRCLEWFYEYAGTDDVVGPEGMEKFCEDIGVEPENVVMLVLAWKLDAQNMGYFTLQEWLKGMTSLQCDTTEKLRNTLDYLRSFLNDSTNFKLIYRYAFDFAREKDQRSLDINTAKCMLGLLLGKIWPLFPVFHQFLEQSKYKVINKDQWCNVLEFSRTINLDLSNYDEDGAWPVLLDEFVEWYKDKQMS
Protocol: as §2

[8] = target: T7, hDcn5^P (PONY domain of human DCUN1D5) (Homo sapiens, UniProt Q9BTE7 47-237); experiment: ITC, peptide titrated into Dcn PONY domain
T7 sequence: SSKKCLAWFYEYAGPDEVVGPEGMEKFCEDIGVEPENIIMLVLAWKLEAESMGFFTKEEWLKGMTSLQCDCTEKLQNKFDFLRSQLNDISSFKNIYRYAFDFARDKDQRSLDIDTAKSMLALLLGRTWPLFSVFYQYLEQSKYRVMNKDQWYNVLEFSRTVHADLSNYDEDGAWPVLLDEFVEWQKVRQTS
Protocol: as §2

[9] = target: hDcn2^P (PONY domain of human DCUN1D2) (Homo sapiens, UniProt Q6PH85 62-259); experiment: ITC, peptide titrated into Dcn PONY domain
Chain of hDcn2^P (PONY domain of human DCUN1D2) (Q6PH85 62-259 limits assumed): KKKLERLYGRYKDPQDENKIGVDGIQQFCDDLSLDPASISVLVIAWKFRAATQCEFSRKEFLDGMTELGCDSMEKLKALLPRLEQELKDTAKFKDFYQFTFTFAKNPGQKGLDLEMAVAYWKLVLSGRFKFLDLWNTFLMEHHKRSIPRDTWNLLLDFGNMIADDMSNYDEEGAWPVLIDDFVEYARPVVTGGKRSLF
Protocol: as §2

[10] = target: T8, hDcn1^P (potentiating neddylation / PONY domain of human Dcn1, DCUN1D1) (Homo sapiens, UniProt Q96GG9 62-259); experiment: ITC, peptide titrated into Dcn PONY domain
T8 construct: also called DCUN1D1^P; SCCRO PONY domain
T8 sequence (Q96GG9 62-259): as the sequence (Q96GG9 62-259) above
Protocol: as §2

[11] = target: T1, hDcn1^P (residues 62 to the C-terminal …); experiment: ITC; against Acetyl-hUbc12^1-26
Protocol: as §1, §2

[12] = target: T3, yDcn1^P (potentiating neddylation …); experiment: ITC, peptide titrated into Dcn1^P; against the unacetylated peptide
Protocol: as §3, §2

[13] = target: T6, hDcn4^P (PONY domain of human DCUN1D4); experiment: ITC, two values in the cell, first value
Protocol: as §2

[14] = target: T6, hDcn4^P (PONY domain of human DCUN1D4); experiment: ITC, two values in the cell, second value
Protocol: as §2

B1: Acetyl-hUbc12^1-15 (peptide)
peptide: Ac-MIKLFSLKQQKKEEE-NH2
notes: Peptide of the hCul1^WHB-hDcn1^P-Acetyl-hUbc12^1-15 crystal structure; also called N-terminally acetylated human Ubc12^1-15
Question: Does B1 bind [1]?
Answer: binds

B2: Formyl-hUbc12^1-26 peptide (peptide)
peptide: For-MIKLFSLKQQKKEEESAGGTKGSSKK-NH2
SMILES: CC[C@H](C)[C@H](NC(=O)[C@H](CCSC)NC=O)C(=O)N[C@@H](CCCCN)C(=O)N[C@@H](CC(C)C)C(=O)N[C@@H](Cc1ccccc1)C(=O)N[C@@H](CO)C(=O)N[C@@H](CC(C)C)C(=O)N[C@@H](CCCCN)C(=O)N[C@@H](CCC(N)=O)C(=O)N[C@@H](CCC(N)=O)C(=O)N[C@@H](CCCCN)C(=O)N[C@@H](CCCCN)C(=O)N[C@@H](CCC(=O)O)C(=O)N[C@@H](CCC(=O)O)C(=O)N[C@@H](CCC(=O)O)C(=O)N[C@@H](CO)C(=O)N[C@@H](C)C(=O)NCC(=O)NCC(=O)N[C@H](C(=O)N[C@@H](CCCCN)C(=O)NCC(=O)N[C@@H](CO)C(=O)N[C@@H](CO)C(=O)N[C@@H](CCCCN)C(=O)N[C@@H](CCCCN)C(N)=O)[C@@H](C)O
notes: Synthetic peptide; also called hUbc12^Formyl-1-26
Question: Which Kd [2] does the source give for B2 here?
Answer: 9710 nM

Question: And the ΔH [2]?
Answer: -4.89 kcal/mol

Question: What about the ΔS [2] of the same binder?
Answer: 5.79 cal/mol/deg

B3: Acetyl-hUbc12^1-26 (peptide)
peptide: Ac-MIKLFSLKQQKKEEESAGGTKGSSKK-NH2
notes: Synthetic peptide; also called hUbc12Ac1-26
Question: For B3, which “increase in affinity by N-terminal acetylation” value [3] is on record?
Answer: ~100 fold

B4: Formyl-yUbc12^1-24 (peptide)
peptide: For-MLKLRQLQKKKQKENENSSSIQPN-NH2
SMILES: CC[C@H](C)[C@H](NC(=O)[C@H](CO)NC(=O)[C@H](CO)NC(=O)[C@H](CO)NC(=O)[C@H](CC(N)=O)NC(=O)[C@H](CCC(=O)O)NC(=O)[C@H](CC(N)=O)NC(=O)[C@H](CCC(=O)O)NC(=O)[C@H](CCCCN)NC(=O)[C@H](CCC(N)=O)NC(=O)[C@H](CCCCN)NC(=O)[C@H](CCCCN)NC(=O)[C@H](CCCCN)NC(=O)[C@H](CCC(N)=O)NC(=O)[C@H](CC(C)C)NC(=O)[C@H](CCC(N)=O)NC(=O)[C@H](CCCNC(=N)N)NC(=O)[C@H](CC(C)C)NC(=O)[C@H](CCCCN)NC(=O)[C@H](CC(C)C)NC(=O)[C@H](CCSC)NC=O)C(=O)N[C@@H](CCC(N)=O)C(=O)N1CCC[C@H]1C(=O)N[C@@H](CC(N)=O)C(N)=O
notes: Synthetic peptide; also called N-terminally formylated yeast Ubc12 peptide
Question: With B4 as the binder, how does the “fold change of Kd against the acetylated peptide” value [4] read?
Answer: ~17 fold

B5: Formyl-yUbc12^1-24 peptide (peptide)
peptide: For-MLKLRQLQKKKQKENENSSSIQPN-NH2
SMILES: CC[C@H](C)[C@H](NC(=O)[C@H](CO)NC(=O)[C@H](CO)NC(=O)[C@H](CO)NC(=O)[C@H](CC(N)=O)NC(=O)[C@H](CCC(=O)O)NC(=O)[C@H](CC(N)=O)NC(=O)[C@H](CCC(=O)O)NC(=O)[C@H](CCCCN)NC(=O)[C@H](CCC(N)=O)NC(=O)[C@H](CCCCN)NC(=O)[C@H](CCCCN)NC(=O)[C@H](CCCCN)NC(=O)[C@H](CCC(N)=O)NC(=O)[C@H](CC(C)C)NC(=O)[C@H](CCC(N)=O)NC(=O)[C@H](CCCNC(=N)N)NC(=O)[C@H](CC(C)C)NC(=O)[C@H](CCCCN)NC(=O)[C@H](CC(C)C)NC(=O)[C@H](CCSC)NC=O)C(=O)N[C@@H](CCC(N)=O)C(=O)N1CCC[C@H]1C(=O)N[C@@H](CC(N)=O)C(N)=O
notes: Synthetic peptide
Question: Which Kd [5] does the source give for B5 here?
Answer: 7460 nM

Question: And the ΔH [5]?
Answer: 2.82 kcal/mol

Question: And the ΔS [5]?
Answer: 33.4 cal/mol/deg

B6: hUbc12^Ac1-26 (peptide)
peptide: Ac-MIKLFSLKQQKKEEESAGGTKGSSKK-NH2
notes: Synthetic peptide of the N-terminus of human Ubc12; also called Acetyl-hUbc12^1-26
Question: For B6, which Kd [6] is on record?
Answer: 10800 nM

Question: What about the Kd [7] of the same binder?
Answer: 10000 nM

Question: And the Kd [8]?
Answer: 8600 nM

Question: And the Kd [9]?
Answer: 735 nM

Question: And the Kd [10]?
Answer: 1500 nM

B7: Formyl-hUbc12^1-26 (peptide)
peptide: For-MIKLFSLKQQKKEEESAGGTKGSSKK-NH2
SMILES: CC[C@H](C)[C@H](NC(=O)[C@H](CCSC)NC=O)C(=O)N[C@@H](CCCCN)C(=O)N[C@@H](CC(C)C)C(=O)N[C@@H](Cc1ccccc1)C(=O)N[C@@H](CO)C(=O)N[C@@H](CC(C)C)C(=O)N[C@@H](CCCCN)C(=O)N[C@@H](CCC(N)=O)C(=O)N[C@@H](CCC(N)=O)C(=O)N[C@@H](CCCCN)C(=O)N[C@@H](CCCCN)C(=O)N[C@@H](CCC(=O)O)C(=O)N[C@@H](CCC(=O)O)C(=O)N[C@@H](CCC(=O)O)C(=O)N[C@@H](CO)C(=O)N[C@@H](C)C(=O)NCC(=O)NCC(=O)N[C@H](C(=O)N[C@@H](CCCCN)C(=O)NCC(=O)N[C@@H](CO)C(=O)N[C@@H](CO)C(=O)N[C@@H](CCCCN)C(=O)N[C@@H](CCCCN)C(N)=O)[C@@H](C)O
notes: Synthetic peptide; also called N-terminally formylated human Ubc12 peptide; hUbc12^Formyl-1-26
Question: For B7, which “fold change of Kd against the acetylated peptide” value [11] is on record?
Answer: ~9 fold

B8: Acetyl-yUbc12^1-24 (peptide)
peptide: Ac-MLKLRQLQKKKQKENENSSSIQPN-NH2
notes: Synthetic peptide; also called yUbc12Ac1-24; N-terminally acetylated S. cerevisiae Ubc12^1-24
Question: With B8 as the binder, how does the “increase in affinity by N-terminal acetylation” value [12] read?
Answer: ~100 fold

B9: yUbc12^Ac1-24 (peptide)
peptide: Ac-MLKLRQLQKKKQKENENSSSIQPN-NH2
notes: Synthetic peptide of the N-terminus of yeast Ubc12; also called Acetyl-yUbc12^1-24
Question: For B9, which Kd [13] is on record?
Answer: 1200 nM

Question: What about the Kd [14] of the same binder?
Answer: 13000 nM

Question: What about the Kd [6] of the same binder?
Answer: 3400 nM

Question: What about the Kd [8] of the same binder?
Answer: 2400 nM

Question: What about the Kd [9] of the same binder?
Answer: 204 nM

Question: What about the Kd [10] of the same binder?
Answer: 311 nM

B10: yUbc12^Ac1-12 (NorLeu) 6, 10 (peptide)
peptide: Ac-[Nle]LKLR[S5]LQK[S5]KQ-NH2
modifications: staple 6-10
SMILES: CCCC[C@H](NC(C)=O)C(=O)N[C@@H](CC(C)C)C(=O)N[C@@H](CCCCN)C(=O)N[C@@H](CC(C)C)C(=O)N[C@@H](CCCNC(=N)N)C(=O)N[C@@]1(C)CCCC=CCCC[C@@](C)(C(=O)N[C@@H](CCCCN)C(=O)N[C@@H](CCC(N)=O)C(N)=O)NC(=O)[C@H](CCCCN)NC(=O)[C@H](CCC(N)=O)NC(=O)[C@H](CC(C)C)NC1=O
Question: B10 was tested. Which Kd [6] did it give?
Answer: 1760 nM

Question: What about the Kd [7] of the same binder?
Answer: 4300 nM

Question: And the Kd [8]?
Answer: 4780 nM

Question: And the Kd [9]?
Answer: 75 nM

Question: And the Kd [10]?
Answer: 68 nM
